The values below come from patent US12091446 (NATIONAL TECHNOLOGY AND ENGINEERING SOLUTIONS OF SANDIA, dated 2024).

Where two headings read alike, the source gives them in different places.

Experiment [1] deals with T1, SARS-COV-2 Delta RBD (SARS-COV-2, UniProt P0DTC2 319-541).
T1 construct: domain: RBD; also called SARS-COV-2 Delta RBD variant
As to the kind of experiment: ELISA titration (A450 against Nb-hFc ug/mL) on SARS-CoV-2 Delta RBD. Background: ELISA stands for enzyme-linked immunosorbent assay.

Experiment [2] addresses T2, SARS-COV-2 spike, Gamma variant (P.1) (SARS-COV-2, UniProt P0DTC2 14-1273). As to the kind of experiment: cell-based or functional assay.
The target of experiment [3] is T3, SARS-COV-2 spike, Beta variant (B.1.351) (SARS-COV-2, UniProt P0DTC2 14-1273). The experiment in a line: cell-based or functional assay.
Experiment [4] has as its target T4, SARS-COV-2 spike, Mu variant (B.1.621) (SARS-COV-2, UniProt P0DTC2 14-1273). The experiment in a line: cell-based or functional assay.
For experiment [5], the target named is T5, SARS-COV-2 Wuhan (WT) RBD (SARS-COV-2, UniProt P0DTC2 319-541).
In experiment [6] the target is T2, SARS-COV-2 spike, Gamma variant (P.1). As to the kind of experiment: cell-based or functional assay. This is another data set of the same source.
The target of experiment [7] is T6, SARS-COV-2 spike, Lambda variant (C.37) (SARS-COV-2, UniProt P0DTC2 14-1273). As to the kind of experiment: cell-based or functional assay.
Experiment [8] deals with T3, SARS-COV-2 spike, Beta variant (B.1.351). As to the kind of experiment: cell-based or functional assay. The source holds these as a separate data set.
The target of experiment [9] is T4, SARS-COV-2 spike, Mu variant (B.1.621). The experiment in a line: cell-based or functional assay. The source holds these as a separate data set.
Experiment [10] addresses T7, SARS-COV-2 spike, Delta variant (B.1.617.2) (SARS-COV-2, UniProt P0DTC2 14-1273). The experiment in a line: cell-based or functional assay.
Experiment [11] has as its target T7, SARS-COV-2 spike, Delta variant …. The experiment in a line: cell-based or functional assay. The source holds these as a separate data set.
In experiment [12] the target is T1, SARS-COV-2 Delta RBD.
Experiment [13] has as its target T6, SARS-COV-2 spike, Lambda variant (C.37). The experiment in a line: cell-based or functional assay. The source holds these as a separate data set.
Experiment [14] addresses T8, SARS-COV-2 spike, Omicron variant (BA.1) (SARS-COV-2, UniProt P0DTC2 14-1273). As to the kind of experiment: cell-based or functional assay.
Experiment [15] deals with T5, SARS-COV-2 Wuhan (WT) RBD. The source holds these as a separate data set.
The target of experiment [16] is T8, SARS-COV-2 spike, Omicron variant (BA.1). The experiment in a line: cell-based or functional assay. This is another data set of the same source.
Experiment [17] has as its target T5, SARS-COV-2 Wuhan (WT) RBD. This is another data set of the same source.

B1: BP2A3 Nb-huFc (Fc fusion)
chain: EVQLQASGGGFVQPGGSLRLSCAASGRTFSAYSMGWFRQAPGKEREFVSAISAGDGAASYYADSVKGRFTISRDNSKNTVYLQMNSLRAEDTATYYCAHYYTTSATLDYAYWGQGTQVTVSS
What is called Kd is a measure of binding affinity in units of concentration. High values mean a looser complex, low ones a tighter complex. As for B1, the binding result in the experiment with SARS-COV-2 Delta RBD [1] was “no binding (tested: 10 ug/mL)”. Also, the figures for the “EC50, neutralization of spike pseudotyped virus” value (“EC50, neutralization” below) in experiment [2], in experiment [3] and in experiment [4] were 3.73 nM, 4.44 nM and 466 nM, respectively. This molecule came in with a Kd in experiment [5] of 0.315 nM.

B2: AP1D4 Nb-huFc (Fc fusion)
chain: EVQLQASGGGFVQPGGSLRLSCAASGHTFDAHRMGWFRQAPGKEREFVSAISSWGQSSTYYADSVKGRFTISRDNSKNTVYLQMNSLRAEDTATYYCAQTDEGNQYVYWGQGTQVTVSS
In [5], B2 had a Kd of 1.09 nM. For the same molecule, the “EC50, neutralization” value in [6] is 13.5 nM; in experiment [7] it was 490 nM; in experiment [8], 627 nM; in [9] it was 1.92 nM; in [10], 758 nM.

B3: BP1A10 Nb-huFc (Fc fusion)
chain: EVQLQASGGGFVQPGGSLRLSCAASGQPSDRYIMGWFRQAPGKEREFVSAISQGAANKTAYADSVKGRFTISRDNSKNTVYLQMNSLRAEDTATYYCATHFNWQNYSYWGQGTQVTVSS
The molecule B3 returned a Kd in experiment [5] of 0.548 nM. In addition, the “EC50, neutralization” value was determined as 3.95 nM in experiment [6], 4.32 nM in [8] and 26.1 nM in experiment [9].

B4: DP4F2 Nb-huFc (Fc fusion)
chain: EVQLQASGGGFVQPGGSLRLSCAASGTTYSERVMGWFRQAPGKEREFVSAISSGQSDQTYYYADSVKGRFTISRDNSKNTVYLQMNSLRAEDTATYYCAPFAGDANLPREWYWGQGTQVTVSSA
Take B4: the entries for the “EC50, neutralization” value in experiment [4] and in experiment [11] were 25.1 nM and 26.8 nM, respectively. Moreover, the Kd in [5] was 9.51 nM; in the experiment with SARS-COV-2 Delta RBD [12], 1.91 nM.

B5: KP2C6 Nb-huFc (Fc fusion)
chain: EVQLQASGGGFVQPGGSLRLSCAASGRTFTSFHMGWFRQAPGKEREFVSAISSGDDGTQYYADSVKGRFTISRDNSKNTVYLQMNSLRAEDTATYYCAAYTTTTVPQYWGQGTQVTVSS
In the case of B5, the “EC50, neutralization” value in experiment [2] was 408 nM; in [13], 612 nM; in experiment [3] it was 411 nM; in experiment [4] it was 305 nM; in [11], 18.3 nM. Moreover, the results for the dissociation constant (Kd) (in experiment [5]; with SARS-COV-2 Delta RBD [12]) were 4.46 nM and 62.6 nM, respectively.

B6: AP1A5 Nb-huFc (Fc fusion)
chain: EVQLQASGGGFVQPGGSLRLSCAASGSTASHYTMGWFRQAPGKEREFVSAISSGRDHAKQYADSVKGRFTISRDNSKNTVYLQMNSLRAEDTATYYCAYEEINATQKDTLYWGQGTQVTVSS
As for B6, the binding result with SARS-COV-2 Delta RBD [1] is listed as “no binding (tested: 10 ug/mL)”. The same molecule registered a Kd in [5] of 1.28 nM. For the same molecule, the “EC50, neutralization” value in experiment [6] worked out at 533 nM; in [7], 79.1 nM; in experiment [8] it was 198 nM; in experiment [9], 7.18 nM; in experiment [10], 73.3 nM.

B7: BP1B1 Nb-huFc (Fc fusion)
chain: EVQLQASGGGFVQPGGSLRLSCAASGRTFSGYIMGWFRQAPGKEREFVSAISQGDSYASYYADSVKGRFTISRDNSKNTVYLQMNSLRAEDTATYYCALYDINTVPYYWGQGTQVTVSS
Turning to B7, in the experiment with SARS-COV-2 Delta RBD [1], the binding result is “no binding (tested: 10 ug/mL)”. The “EC50, neutralization” value amounted to 403 nM in experiment [14], 3.68 nM in [2], 3.5 nM in experiment [3] and 6.97 nM in experiment [4]. Further, the Kd in experiment [5] was 0.266 nM; in [15], 371 nM.

B8: KP1C9 Nb-huFc (Fc fusion)
chain: EVQLQASGGGFVQPGGSLRLSCAASGRTFDAYSMGWFRQAPGKEREFVSAISSWSDDWTAYADSVKGRFTISRDNSKNTVYLQMNSLRAEDTATYYCALQNTKEDRLYWGQGTQVTVSS
B8: the “EC50, neutralization” value came out at 80.2 nM in experiment [2]; 0.13 nM in experiment [13]; 203 nM in experiment [3]; 2.02 nM in experiment [4]; 1.22 nM in experiment [11]. For the same molecule, the Kd was 0.119 nM in [5] and 25.5 nM with SARS-COV-2 Delta RBD [12].

B9: AP1C3 Nb-huFc (Fc fusion)
chain: EVQLQASGGGFVQPGGSLRLSCAASGRTYRGYSMGWFRQAPGKEREFVSAISSWSDDWTAYADSVKGRFTISRDNSKNTVYLQMNSLRAEDTATYYCAWQYIDEIQYYWGQGTQVTVSS
Regarding B9, the Kd in [5] is 0.133 nM; with SARS-COV-2 Delta RBD [12], 33.3 nM. Besides, the “EC50, neutralization” value in experiment [6] is 1.07 nM; in experiment [7], 0.02 nM; in experiment [8] it was 338 nM; in experiment [9], 0.83 nM; in experiment [10], 191 nM.

B10: BP2H9 Nb-huFc (Fc fusion)
chain: EVQLQASGGGFVQPGGSLRLSCAASGQTFTHVPMGWFRQAPGKEREFVSAISDTSGFETYYADSVKGRFTISRDNSKNTVYLQMNSLRAEDTATYYCAWAYDQFNWNYWGQGTQVTVSS
On to B10, for which the “EC50, neutralization” value was 0.26 nM in experiment [2], 0.21 nM in experiment [3] and 922 nM in experiment [4].

B11: KP1B5 Nb-huFc (Fc fusion)
chain: EVQLQASGGGFVQPGGSLRLSCAASGFTFDWSAMGWFRQAPGKEREFVSAISSSTSESTTYADSVKGRFTISRDNSKNTVYLQMNSLRAEDTATYYCATYYGGKTVEQDFYWGQGTQVTVSS
As to B11, the “EC50, neutralization” value in [2] was determined as 214 nM; in experiment [13], 472 nM; in experiment [3] it was 482 nM; in [4], 367 nM; in [11] it was 324 nM.

B12: AP1B6 Nb-huFc (Fc fusion)
chain: EVQLQASGGGFVQPGGSLRLSCAASGSAFQIYAMGWFRQAPGKEREFVSAISSTDSETDHYADSVKGRFTISRDNSKNTVYLQMNSLRAEDTATYYCAVNGFDYAHSKAGPQVYWGQGTQVTVSS
For B12, in the experiment with SARS-COV-2 Delta RBD [1], the binding result was “no binding (tested: 10 ug/mL)”. In [5], the Kd worked out at 0.585 nM. Further, the “EC50, neutralization” value in [6] stood at 0.26 nM; in [7], 414 nM; in experiment [8] it was 0.12 nM; in experiment [9], 1.54 nM; in experiment [10] it was 586 nM.

B13: BP2A6 Nb-huFc (Fc fusion)
chain: EVQLQASGGGFVQPGGSLRLSCAASGQTFSHYIMGWFRQAPGKEREFVSAISAGQGHATYYADSVKGRFTISRDNSKNTVYLQMNSLRAEDTATYYCAKYQDTIAPLYWGQGTQVTVSS
As for B13, in the experiment with SARS-COV-2 Delta RBD [1], the binding result is “no binding (tested: 10 ug/mL)”. Moreover, the dissociation constant (Kd) in experiment [5] was found to be 0.0766 nM; in experiment [17], 149 nM. In addition, the “EC50, neutralization” value in experiment [16] is 43.3 nM; in experiment [6] it was 0.63 nM; in [7], 883 nM; in [8], 0.34 nM; in experiment [9], 2.53 nM; in experiment [10], 875 nM.
